In the supplement of paper PMC9170038:

Test system: MS2 coat protein
Test: apparent KD of MS2 coat protein; designed switch direction (-1 OFF switch, 1 ON switch): 1; higher = weaker reporter binding
Summary of the method: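 SNAP-549-labelled MS2 coat protein was titrated, doubling from 0.7 or 1.5 nM to 3 µM, over designed RNA switches transcribed on Illumina chips by stalled E. coli RNA polymerase. Runs were done without input, with 200 uM small-molecule ligand, or with an oligonucleotide input. Apparent KD is the per-design median over clusters of curve-fitted normalised fluorescence.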

[1] = input ligand: microRNA oligo, concentration not stated
[2] = Eterna round: R95, input ligand: FMN 200 uM
[3] = Eterna round: R95, input ligand: microRNA oligo, concentration not stated
[4] = Eterna round: R95, input ligand: none

| Sequence | apparent KD of MS2 coat protein (input ligand: FMN 200 uM) [nM] | apparent KD of MS2 coat protein [1] [nM] | apparent KD of MS2 coat protein (input ligand: none) [nM] | apparent KD of MS2 coat protein [2] [nM] | apparent KD of MS2 coat protein [3] [nM] | apparent KD of MS2 coat protein [4] [nM] |
| --- | --- | --- | --- | --- | --- | --- |
| CCGUCGGAGGUAGGAUAUGGAGCCUUAUUGGCUCCAGAAGGAUCAAAUAAAUUAACAAACAUGAGGAUCACCCAUGUCCGACGG [Eli NG1ss - 86] (Eterna round: R96, puzzle: Same State NG 1) | 156 | 331 | 558 |  |  |  |
| CCGUGGUAACAUGAGGAUCACCCAUGUACAAGCUUUUUGCUCGUUGGAUCCGGCGCGCCCAUUAUGGGCGCGCCGGA [Nishu_Seq2] (puzzle: Sensor for hsa-mir-208a version 2) |  |  |  | 26.2 | 16 | 25.6 |
| CGCAUCAUUGUUACAUGAGGAUCACCCAUGUUUUCGAGUGGAGAGGAUAUCGUAACAGUAUAAAUCGAGAAGGCUCUAUAGUAU [JR_SSNG3_Sub082] (Eterna round: R96, puzzle: Same State NG 3) | 34.1 | 77.1 | 81.6 |  |  |  |
| CGCCAACGCAUAGGAUAUGCUUGUGUGGAUCGGGCAGAAGGGUGGUUGGAAACAUGAGGAUCACCCAUGUAAAAGUAAGAAAAU [Rierinqu] (Eterna round: R96, puzzle: Same State NG 1) | 1450 | 926 | 668 |  |  |  |
| CGCCAGAGAACAGGAUAUGGGCCGCGGCCUAAGGGCUGCUAACUCACAUGAGGAUCACCCAUGUCCCAGAAGGGUUCCUGGCUG [Gexeso] (Eterna round: R96, puzzle: Same State NG 2) | 602 | 31.4 | 45.8 |  |  |  |
| CGUAGGAUAUGCAGAGGAUCACCCUGUAGAAGGACGAUUACGUAGGAUAUGCAGAGGAUCACCCUGUAGAAGGACGACUAAUCU [pwkr ssNG3 DX 2xF5 +2xFMN.2] (Eterna round: R96, puzzle: Same State NG 3) | 174 | 105 | 129 |  |  |  |
| CGUCCGGCCUGAGCUGGACGGAAGCAUGUACAUGAGGAUCACCCAUGUUCAUGUGCAGGCUUUUUGCUCGUCUUGUG [JL-shm-2.08 JL mod] (puzzle: Sensor for hsa-mir-208a) |  |  |  | 105 | 12.5 | 127 |
| CGUUCUUACUCGGUACGGUGAGUAGAGGAACAUGAGGAUCACCCAUGUUUGAGCUUUUUGCUCGUGAUUAACAGUUG [JR_SHM208a_Sub015] (puzzle: Sensor for hsa-mir-208a) |  |  |  | 92.2 | 102 | 149 |
| CUAAACAGAGGAGGAUAUGCAGAGGAUCACCCUGUAGAAGGCCACAGAGGAGGAUAUGCAGAGGAUCACCCUGUAGAAGGCCAC [pwkr ssNG DX.7] (Eterna round: R96, puzzle: Same State NG 1) | 121 | 210 | 222 |  |  |  |
| CUCAAACAUGAGGAUCACCCAUGUGUUGUCGUGGGAGGAUAUCCCAGUUCGGUGGCGUCGGGAGAAGGCCUAUGUC (Eterna round: R96, puzzle: Same State 1) | 67.8 | 106 | 129 |  |  |  |
| CUCAAACAUGAGGAUCACCCAUGUGUUGUCGUGGGAGGAUAUCCCAGUUCGGUGGCGUCGGGAGAAGGCCUAUGUC [× ×•×ª×• ×ž×“×™× ×” × ×—×ª-16] (puzzle: Same State 1) |  |  |  | 50.4 | 100 | 129 |
| CUCCCAGCGGGAGGAUAUGGUGCCUUGUUGGUGCUAGAAGGUCCAACAUGAGGAUCACCCAUGUGGGAGUGGUUGAGAGACCUC [SS NG10LRO12] (Eterna round: R96, puzzle: Same State NG 1) | 218 | 166 | 278 |  |  |  |
| CUGAAAUGUCAAGGAUAUCACGUCGAUUAGACGUGAGAAGGUGAUCUACACAUGAGGAUCACCCAUGUGUUACAUGGGAGUCAG [Brourd's SSNG1/1-A2 mod 17] (Eterna round: R96, puzzle: Same State NG 1) | 325 | 448 | 601 |  |  |  |
| CUGAAAUGUCAAGGAUAUCACGUCGAUUAGACGUGAGAAGGUGAUCUGCACAUGAGGAUCACCCAUGUGUUACAUGGGAAUCAG [Brourd's SSNG1/1-A2 mod 15] (Eterna round: R96, puzzle: Same State NG 1) | 289 | 90.3 | 624 |  |  |  |
| CUGAGCAAUCAAGGAUAUCACGUCGAUUAGACGUGAGAAGGUGAUCAUCACAUGAGGAUCACCCAUGUGUUACAUGGAGCUCAG [Brourd's SSNG1/1-A2 mod 4] (Eterna round: R96, puzzle: Same State NG 1) |  | 610 |  |  |  |  |
| CUGCAACAUGAGGAUCACCCAUGUAACCCAAUUAUAGGAUAUGUGAUGGUGAUCGACAUGACAGAAGGGUGAUUGG [Arinra] (Eterna round: R96, puzzle: Same State 1) | 174 | 29.7 | 41.8 |  |  |  |

| Sequence | apparent KD of MS2 coat protein (input ligand: FMN 200 uM) [nM] | apparent KD of MS2 coat protein [1] [nM] | apparent KD of MS2 coat protein (input ligand: none) [nM] | apparent KD of MS2 coat protein [2] [nM] | apparent KD of MS2 coat protein [3] [nM] | apparent KD of MS2 coat protein [4] [nM] |
| --- | --- | --- | --- | --- | --- | --- |
| CUGCAACAUGAGGAUCACCCAUGUAACCCAAUUAUAGGAUAUGUGAUGGUGAUCGACAUGACAGAAGGGUGAUUGG [Arinra] (puzzle: Same State 1) |  |  |  | 199 | 99.4 | 46.4 |
| CUGGCGCGCACAGGAUAUGCGGCCGGCAAGGUGGCAGAAGGGUGAUAAACAGACGACAUGAGGAUCACCCAUGUCGCAAAGAAU [Arsobe] (Eterna round: R96, puzzle: Same State NG 1) | 214 | 71.3 | 85.4 |  |  |  |
| CUUUUUAAUGCAGGAUAUGAUCAACAUGAGGAUCACCCAUGUGGCGUUGUGAGUAGGGAGAGUGAUCAGAAGGGCGUCUCCUCG [SS-NG2-LRO09] (Eterna round: R96, puzzle: Same State NG 2) | 43.9 | 38 | 56.6 |  |  |  |
| CUUUUUAAUGCAGGAUAUGAUCAACAUGAGGAUCACCCAUGUGGUGUUGUGAGUAAGGAGAGUGAUCAGAAGGGCAUCUCCUCA [SS-NG2-LRO06] (Eterna round: R96, puzzle: Same State NG 2) | 186 | 73.6 | 83.6 |  |  |  |
| GAAAAACAUGAGGAUCACCCAUGUGAGAAUAUGGGAGGAUAUUCAAAGACGAAAGUCAAAGAAGAAGGCCUAAAAG [Mat - Same State 1 - Eli mod - 37] (Eterna round: R96, puzzle: Same State 1) | 33.4 | 143 | 211 |  |  |  |
| GAAAGCAUGGGAGGAUAUAGCCUCUAUGGAGGGCUAGAAGGCCCUGGCCACAUGAGGAUCACCCAUGUGAAAUAAAUAGAAGAA [MOD Raarceza] (Eterna round: R96, puzzle: Same State NG 1) | 453 | 2.74 | 188 |  |  |  |
| GAAGAACAUGAGGAUCACCCAUGUAAGCGGAAGCUAGGAUAUGCGGGAAAGAAAAGAGAAGCAGAAGGAGUAGGAA [JR_SS1_Sub028] (puzzle: Same State 1) |  |  |  | 33 | 44.7 | 68.2 |
| GAAGAACAUGAGGAUCACCCAUGUAGGCGGAAGCUAGGAUAUGCGGGAAAGAAGAGAGAAGCAGAAGGAGUAGGUA [JR_SS1_Sub030] (puzzle: Same State 1) |  |  |  | 28.1 | 28.3 | 38.2 |
| GAAUUAAGAGUAGGAUAUGUGGGCGAGCUGCCACCCACAUGAGGAUCACCCAUGUAUGGACACUCACAGAAGGGCUUAUUCAAC [Eternabot solution 37] (Eterna round: R96, puzzle: Same State NG 2) | 68.8 | 60.5 | 64.8 |  |  |  |
| GACAUUCUAUCUCAGGAUAUCAUGUCAAAGACAUGAGGAUCACCCAUGUACCAGGAAACUGGUUAUGAGAAGGGAGAUAGAAUGG [Mat - Same State 2 - Mod - D47] (puzzle: Same State 2) |  |  |  | 122 | 119 | 221 |
| GACGUGAAGGCAGGAUAUGGGAAAGGAAGUGUACCAGAAGGGCCUGGAAAACAUGAGGAUCACCCAUGUGAACCCACGUCAGUU [PowerStrip SSNG 1.26] (Eterna round: R96, puzzle: Same State NG 1) | 16 | 35.4 | 27.9 |  |  |  |
| GAGAGACAUGAGGAUCACCCAUGUAGGAGAAGACAAGGAUAUGUAGGAGAAGGAGAAGGAACAGAAGGUGUGGGAG [JR_SS1_Sub051] (puzzle: Same State 1) |  |  |  | 57.9 | 96.6 | 109 |
| GAGAGAGGAAGCGAGGAUAUCGUGUUGAGUACAUGAGGAUCACCCAUGUUGUAGGUAGAGGUAGGCGAGAAGGCGCAGGAGAGGU [JR_SS2_Sub098] (puzzle: Same State 2) |  |  |  | 106 | 48.8 | 122 |
| GAGAGAUGGCGAGGAUAUUCGGUGAUAAUGAUGGAAGAAGGCGCUGACAUGAGGAUCACCCAUGUGGGAAUAAUCCAGAGAGAG [Parity 16 - Jieux - Same State NG 1] (Eterna round: R96, puzzle: Same State NG 1) | 306 | 154 | 257 |  |  |  |
| GAGCCAGUCCGAGGAUAUUCAUAACAUGAGGAUCACCCAUGUAGGCUCAGAAAAGAAGAGCCUUGGGAGAAGGCGGACUGGCUC [Xeonanisa<<5] (Eterna round: R96, puzzle: Same State NG 2) | 9.88 | 30.2 | 43.8 |  |  |  |
